Several values for one entry are separate records, joined by “and”; a condition that tells them apart may be missing. Equal entries are not always repeated. Where two headings read alike, the source gives them in different places.
Tests used:
[1] = molecular target: T1, human PVRIG-mFc protein (Acro, PVG-H5253) (human, UniProt Q6DKI7 41-171, limits assumed); experiment: competition FACS; blocked: human PVRIG-mFc binding to CHO-K1-CD112 cells
T1 construct: bought reagent; also called PVRIG-ECD-mFc
T1 sequence (looked up): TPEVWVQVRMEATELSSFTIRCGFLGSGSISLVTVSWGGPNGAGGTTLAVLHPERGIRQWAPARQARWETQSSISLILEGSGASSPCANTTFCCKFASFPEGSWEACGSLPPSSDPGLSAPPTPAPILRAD
Protocol: (§1) After incubation, the cells were added with staining buffer (2% FBS+PBS) to stop staining, centrifuged at 350×g to remove the supernatant, washed twice and resuspended with staining buffer to a density of 1×10⁶ cells/mL. The cells were plated into a 96-well plate (50 μL of cell suspension per well) for further use. A working solution of human PVRIG-mFc protein (Acro, PVG-H5253) prepared with staining buffer, 1 μg/mL (four-fold concentration), was added into a 96-well plate (50 μL PVRIG-mFc working solution per well). […] The diluted antibodies were added to the well containing 50 μL of PVRIG-mFc. The plate was placed on a microplate shaker at 400 rpm for 1 minute to fully mix the antibodies and PVRIG-mFc proteins, and then incubated at 4° C. for 30 minutes. After the incubation, the cell suspension prepared above (100 μL) was added into the wells, gently mixed with the pipette tip and incubated at 4° C. for 30 minutes. After the incubation, the cells were washed twice with staining buffer (200 μL per well) and centrifuged at 350×g for 5 minutes to discard the supernatant. The PE goat anti-mouse IgG Fc antibody (Biolegend, 405337) was diluted 250 times with staining buffer, added into the washed wells (100 μL per well), mixed well, and stained at 4° C. for 30 minutes. After staining, the cells were washed twice with staining buffer, finally resuspended with 200 μL staining buffer and analyzed by flow cytometry (BD, Canto II). The weaker the fluorescence signal, the stronger the ability of the antibodies blocks the binding of CHO-K1 human CD112 cells to the PVRIG-mFc protein. An antibody binding curve was drawn with concentration of antibodies as the abscissa and the corresponding Mean Fluorescence Intensity (MFI) as the ordinate. The IC50 value of the antibodies and the AUC value of the binding curve were calculated by using a Four Parameter Logistic Fit (GraphPadPrism9). The smaller the IC50 value and AUC value, the stronger the ability of the antibodies competes with CHO-K1-CD112 cells to bind to human PVRIG-mFc protein.

[2] = molecular target: T2, human PVRIG on FlpinCHO-PVRIG cells (human, UniProt Q6DKI7 41-326); experiment: FACS, FlpinCHO-PVRIG cells
T2 construct: whole, on cells; also called FlpinCHO-hPVRIG; FlpinCHO-human PVRIG
T2 sequence (looked up): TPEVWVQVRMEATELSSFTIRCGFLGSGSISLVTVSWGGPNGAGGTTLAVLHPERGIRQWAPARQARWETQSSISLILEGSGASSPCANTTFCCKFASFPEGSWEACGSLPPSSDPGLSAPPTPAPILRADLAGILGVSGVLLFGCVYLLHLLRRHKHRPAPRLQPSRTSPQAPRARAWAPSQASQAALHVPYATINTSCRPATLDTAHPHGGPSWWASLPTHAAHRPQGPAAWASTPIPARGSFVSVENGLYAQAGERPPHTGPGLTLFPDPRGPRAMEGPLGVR
Protocol: After discarding the cell culture medium, the cells were rinsed with PBS and digested for 8-10 minutes by adding 1 mL Versene (Gibico, 15040-066). The Ham's F12 (Gibico, 21127-022) complete medium containing 10% FBS was then added to terminate the digestion and acquire cell suspension. After counting with a cell counter (Beckman Coulter, Vi-CELL), an appropriate amount of cell suspension was centrifuged at 350×g to remove the supernatant, washed twice with PBS, stained with Zombie violet (Biolegend, 423114) and incubated at room temperature for 20 minutes. After incubation, the cells were added with staining buffer (2% FBS+PBS) to stop staining, centrifuged at 350×g to remove the supernatant, washed twice and resuspended with staining buffer to a density of 2×10⁶ cells/mL. The cells were plated into a 96-well plate (50 μL of cell suspension per well) for further use. The antibodies were diluted from the highest concentration of 46 nM (two-fold concentration) with staining buffer by 3.3-fold serial dilution. The diluted antibodies were added to the well containing 50 μL of cell suspension. The plate was placed on a microplate shaker at 400 rpm for 1 minute to fully mix the antibodies and cells, and then incubated at 4° C. for 30 minutes. After the incubation, the cells were washed twice with staining buffer (200 μL per well) and centrifuged at 350×g for 5 minutes to discard the supernatant. The PE goat anti-human IgG Fc antibody (ebioscience, 12-4998-82) was diluted 250 times with staining buffer, added into the washed wells (100 μL per well), mixed well, and stained at 4° C. for 30 minutes. After staining, the cells were washed twice with staining buffer, finally resuspended with 200 μL staining buffer and analyzed by flow cytometry (BD, Canto II). The stronger the signal, the stronger the ability of the antibodies binds to PVRIG. An antibody binding curve was drawn with concentration of antibodies as the abscissa and the corresponding Mean Fluorescence Intensity (MFI) as the ordinate. The AUC value of the curve was calculated by using a Four Parameter Logistic Fit (GraphPadPrism9).

[3] = molecular target: T3, human PVRIG-his (AcroBiosystems, Cat NO. PVG-H52H4) (human, UniProt Q6DKI7 41-171, limits assumed); experiment: competition ELISA on coated human PVRIG-his; blocked ligand human PVRL2-mFc
T3 construct: treated as the same protein; also called human PVRIG-His protein; Human PVRIG-His, Acro C227P1-9ARF1-T4
T3 sequence (looked up): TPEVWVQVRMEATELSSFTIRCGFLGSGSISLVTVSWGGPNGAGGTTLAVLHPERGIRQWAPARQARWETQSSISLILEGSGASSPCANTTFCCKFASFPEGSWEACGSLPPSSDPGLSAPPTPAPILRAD
Protocol: (§2) The ELISA plate was pre-coated with 100 μL/well of 0.5 μg/mL human PVRIG-his protein (AcroBiosystems, Cat NO. PVG-H52H4). The tested anti-PVRIG antibodies were diluted from the highest concentration of 16 nM (two-fold concentration). The diluted antibodies were mixed with 18 ng/ml human PVRL2-mFc (AcroBiosystems, Cat NO. CD2-H5257) in equal volume, added into the plate (100 μL/well), and incubated with shaking at room temperature for 2.0 hours. […] A HRP substrate, TMB (Thermo, Cat NO. 34029) was added into wells after washing the plate again for color development. After adding a termination solution to terminate the reaction, the absorbance value was read by a microplate reader (MD i3×). An inhibiting curve was drawn with concentration of antibodies as the abscissa and the corresponding OD value as the ordinate. The IC50 value was calculated by using a Four Parameter Logistic Fit (GraphPadPrism9). The smaller the IC50 value, the stronger the ability of the antibodies inhibits the binding between PVRIG and PVRL2. The positive and negative controls are the same as in Example 8.
The methods refer to Example 11. The inhibiting activity of the humanized antibodies was normalized to the corresponding parental antibodies. If the percentage value is higher than 100%, the inhibiting effect of humanized antibodies is better than that of parental antibodies.

[4] = molecular target: T3, human PVRIG-his (AcroBiosystems, Cat …); experiment: as above; remark: listed apart in the source
Protocol: as §2

[5] = molecular target: T1, human PVRIG-mFc protein (Acro, …); experiment: competition FACS; blocked: PVRIG-mFc binding to CHO-K1 CD112 cells
Protocol: as §1, with “The Ham's F12 (Gibico, 21127-022) complete medium containing 10% FBS was then added to stop the digestion and acquire cell suspension. After counting with a cell counter (Beckman Coulter, Vi-CELL), an appropriate amount of cell suspension was centrifuged at 350×g to remove the supernatant, washed twice with PBS, stained with Zombie violet (Biolegend, 423114) and incubated at room temperature for 20 minutes. After incubation,” for “After incubation,”, “density of 2×10⁶ cells/mL. The” for “density of 1×10⁶ cells/mL. The”, “PVRIG-mFc protein.” for “PVRIG-mFc protein. An antibody binding curve was drawn with concentration of antibodies as the abscissa and the corresponding Mean Fluorescence Intensity (MFI) as the ordinate. The IC50 value of the antibodies and the AUC value of the binding curve were calculated by using a Four Parameter Logistic Fit (GraphPadPrism9). The smaller the IC50 value and AUC value, the stronger the ability of the antibodies competes with CHO-K1-CD112 cells to bind to human PVRIG-mFc protein.”

[6] = molecular target: T1, human PVRIG-mFc protein (Acro, …); experiment: competition FACS; blocked: human PVRIG-mFc binding to CHO-K1-CD112 cells; remark: listed apart in the source
Procedure, shortened: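 In this competition flow cytometry assay, the IC50 was taken from the curve of mean fluorescence intensity against antibody dilution. Antibodies and human PVRIG-mFc were premixed at 4° C for 30 min, then incubated with Zombie violet-stained CHO-K1-CD112 cells for 30 min at 4° C. PE goat anti-mouse IgG Fc (1:250) detected bound PVRIG-mFc on a BD Canto II.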

[7] = molecular target: T4, cynomolgus monkey PVRIG (Novoprotein, Cat NO. C09B) (cynomolgus monkey, UniProt A0A2K5WVV8 41-171); experiment: ELISA, coated cynomolgus monkey PVRIG
T4 construct: bought reagent; also called cynomolgus monkey PVRIG recombinant protein
T4 sequence: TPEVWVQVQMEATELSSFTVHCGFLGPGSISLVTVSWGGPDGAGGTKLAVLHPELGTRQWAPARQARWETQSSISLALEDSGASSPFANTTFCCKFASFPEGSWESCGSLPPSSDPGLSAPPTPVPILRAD
Protocol: (§3) The ELISA plate was pre-coated with 100 μL/well of 0.5 μg/mL human PVRIG-his (AcroBiosystems, Cat NO. PVG-H52H4) or cynomolgus monkey PVRIG (Novoprotein, Cat NO. C09B). […] A HRP substrate, TMB (Thermo, Cat NO. 34029) was added into wells after washing the plate again for color development. After adding a termination solution to terminate the reaction, the absorbance value was read by a microplate reader (MD i3×). An antibody binding curve was drawn with concentration of antibodies as the abscissa and the corresponding OD value as the ordinate. The EC50 value was calculated by using a Four Parameter Logistic Fit (GraphPadPrism9). The smaller the EC50 value, the stronger the ability of the antibodies binds to human or cynomolgus monkey PVRIG. The positive control antibodies are COM701-hIgG1 (Patent No.:US20180244774A1), COM701-hIgG4 (patent No.: US20180244774A1) and SRF813-hIgG1 (Patent No.:US20200040081A1); and the negative control antibodies are anti-HA HcAb-hIgG1 (Chengdu NB Biolab, Cat NO. NBR022), anti-CD38 HcAb-hIgG1 (in-house) and anti-Fluorescein-hIgG1 (in house).

[8] = molecular target: T3, human PVRIG-his (AcroBiosystems, Cat …); experiment: ELISA, coated human PVRIG-his
Protocol: as §3

B1: PVRIG-A50 (VHH)
VHH: EVQLVESGGGLVQPGGSLRLSCAASGFTFSYYDMSWVRQAPGKGLEWVSTINSNGGRTSYVDSVKGRFTISRDNTKNTLYLQMNSLKPEDTAVYYCVEGDPHNFGLENLSLRDFGSWGQGTQVTVSS
notes: tested as VHH-hinge-CH2-CH3 (human IgG1-Fc); not shown: human IgG1 hinge-CH2-CH3
IC50 (read off the curve) [1]: ~0.7 nM | EC50 (read off the curve) [2]: ~0.7 nM | IC50 (read off the curve) [3]: ~0.8 nM and ~1 nM | IC50 (read off the curve) [4]: ~2 nM

B2: PVRIG-A50-H1b (VHH)
VHH: EVQLVESGGGLVQPGGSLRLSCAASGFTFSYYDMSWVRQAPGKGLEWVSTINSDGGRTSYVDSVKGRFTISRDNSKNTLYLQMNSLRAEDTAVYYCVEGDPHNFGLESLSLRDFGSWGQGTMVTVSS
notes: humanized VHH; also called A50.VH1b
IC50 (read off the curve) [5]: ~1 nM

B3: COM701-hIgG4 (antibody, V domains shown)
VH: QVQLVQSGAEVKKPGASVKVSCKASGYTFTDYNINWVRQAPGQGLEWMGYIYPYIGGSGYAQKFQGRVTMTRDTSTSTVYMELSSLRSEDTAVYYCAREDKTARNAMDYWGQGTLVTVSS
VL: DIQMTQSPSSLSASVGDRVTITCRVSENIYSNLAWYQQKPGKAPKLLIYEATNLAEGVPSRFSGSGSGTDFTLTISSLQPEDFATYYCQHFWGTPYTFGQGTKLEIK
notes: anti-PVRIG positive control
IC50 (read off the curve) [1]: ~0.8 nM | IC50 (read off the curve) [5]: ~0.7 nM | IC50 (read off the curve) [6]: ~0.9 nM | EC50 (read off the curve) [7]: ~0.1 nM | EC50 (read off the curve) [8]: ~0.3 nM | IC50 (read off the curve) [4]: ~0.8 nM

B4: PVRIG-A118 (VHH)
VHH: QVQLVESGGGLVQAGGSLRLSCAASETYFDLYVMGWYRQAPGKDRELVATITYTGSIKIVDSVKDRFTISRGDAKNTVSLQMSSLKPEDTAVYFCNADPSGLGRKVYWGQGTQVTVSS
notes: as for B1
IC50 (read off the curve) [1]: ~1 nM | EC50 (read off the curve) [2]: ~0.2 nM | IC50 (read off the curve) [3]: ~0.6 nM | IC50 (read off the curve) [4]: ~0.6 nM

— patent publication US20240343803A1 (SHANDONG SIMCERE BIOPHARMACEUTICAL, published 2024)
